# What was measured:
# [1] = target: K48-linked diubiquitin (UniProt P0CG48); test: SPR, GST-UBA captured on anti-GST antibody
# [2] = target: K63-linked diubiquitin (UniProt P0CG48); test: SPR, GST-UBA captured on anti-GST antibody
# [3] = target: K63-linked tetraubiquitin (UniProt P0CG48); test: fluorescence anisotropy competition with fluorescent Vps27 7aa linker peptide
# [4] = target: K48-linked tetraubiquitin (UniProt P0CG48); test: as above
# [5] = target: K48-linked diubiquitin (UniProt P0CG48); test: fluorescence anisotropy
# [6] = target: K63-linked diubiquitin (UniProt P0CG48); test: fluorescence anisotropy
# [7] = target: K63-linked tetraubiquitin (UniProt P0CG48); test: SPR, captured on anti-GST antibody
# [8] = target: K48-linked tetraubiquitin (UniProt P0CG48); test: fluorescence anisotropy, ratio of Kd
# [9] = target: K63-linked tetraubiquitin (UniProt P0CG48); test: fluorescence anisotropy
# [10] = target: K48-linked tetraubiquitin (UniProt P0CG48); test: fluorescence anisotropy
# [11] = target: K63-linked tetraubiquitin (UniProt P0CG48); test: SPR, GST-UBA captured on anti-GST antibody
# [12] = target: K48-linked tetraubiquitin (UniProt P0CG48); test: SPR, GST-UBA captured on anti-GST antibody
# [13] = target: K63-linked tetraubiquitin (UniProt P0CG48); test: fluorescence anisotropy; remark: listed apart in the source
# [14] = target: K48-linked tetraubiquitin (UniProt P0CG48); test: fluorescence anisotropy; remark: listed apart in the source
# [15] = target: K63-linked diubiquitin (UniProt P0CG48); test: fluorescence anisotropy to high K63-Ub2 concentrations, divalent-divalent complex fit, avid mode
# [16] = target: K63-linked diubiquitin (UniProt P0CG48); test: fluorescence anisotropy, divalent-divalent complex fit, non-avid mode
# [17] = target: K48-linked tetraubiquitin (UniProt P0CG48); test: fluorescence anisotropy, ratio of Kd for Ub4 chains
# [18] = target: K63-linked diubiquitin (UniProt P0CG48); test: fluorescence anisotropy competition against the fluorescent Rap80 tUIM peptide at saturating K63-Ub2
# [19] = target: K48-linked diubiquitin (UniProt P0CG48); test: fluorescence anisotropy; remark: listed apart in the source
# [20] = target: K63-linked diubiquitin (UniProt P0CG48); test: fluorescence anisotropy; remark: listed apart in the source
# [21] = target: K48-linked tetraubiquitin (UniProt P0CG48); test: fluorescence anisotropy, against K63-Ub4
# [22] = target: K48-linked diubiquitin (UniProt P0CG48); test: fluorescence anisotropy, against K63-Ub2
# [23] = target: K63-linked tetraubiquitin (UniProt P0CG48); test: SPR Kd of GST-UBA1 against fluorescence anisotropy Kd of the free domain
# [24] = target: K63-linked diubiquitin (UniProt P0CG48); test: fluorescence anisotropy, alanine linker series
# [25] = target: K63-linked tetraubiquitin (UniProt P0CG48); test: fluorescence anisotropy, solution state
# [26] = target: K63-linked diubiquitin (UniProt P0CG48); test: fluorescence anisotropy; Rap80 tUIM with 9-alanine linker
# [27] = target: K63-linked diubiquitin (UniProt P0CG48); test: ITC, single-site model
# [28] = target: K63-linked diubiquitin (UniProt P0CG48); test: ITC, single-site model; unit mM, evidently µM
substance,measurement,setting,value
GST-DRM2 UBA1 (from UniProt Q9M548 106-154),Kd,[1],140 µM
same,Kd,[2],89 µM
Vps27 (wt) tandem UIM peptide,Kd,[3],29 µM
same,Kd,[4],31 µM
same,Kd,[5],211 µM
same,Kd,[6],67 µM
GST-fmm (functionally monomeric mixture; GST-His/GST-Ede1 heterodimer) (from UniProt P34216 1336-1381),Kd,[7],23 µM
Ataxin3 (wt) tandem UIM peptide,fold preference over K63-Ub4,[8],5 fold
same,Kd,[9],15 µM
same,Kd,[5],100 µM
same,Kd,[6],91 µM
same,Kd,[10],3.3 µM
GST-Ede1 UBA (from UniProt P34216 1336-1381),Kd,[11],6 µM
same,Kd,[1],110 µM
same,Kd,[2],48 µM
same,Kd,[12],25 µM
Rap80_S101A (peptide),Kd,[5],152 µM
same,Kd,[6],11 µM
"Rap80 tandem UIMs (wt) peptide, His6-tagged, fluorescein-labelled",Kd,[13],3.8 µM
same,Kd,[14],15 µM
same,Kd,[15],22 µM
same,Kd,[16],1000 µM
same,Kd,[9],3.6 µM
same,Kd,[6],21.6 µM
same,Kd,[10],14 µM
GST-Ubc1 UBA (from UniProt P21734 167-215),Kd,[1],460 µM
Rap80 ataxin linker (peptide),fold K48 preference,[17],6 fold
same,Kd,[9],20 µM
same,Kd,[5],143 µM
same,Kd,[6],115 µM
same,Kd,[10],3.4 µM
unlabeled Rap80 tUIM peptide,Ki,[18],24 µM
"Dsk2 UBA, fluorescein-labelled (from UniProt P48510 327-371)",fold difference in Kd for K63- and K48-Ub4,[8],< 2 fold
same,Kd,[13],2.2 µM
same,Kd,[14],1.4 µM
Ede1_rhodamine (from UniProt P34216 1338-1381),Kd,[13],54 µM
same,Kd,[19],86 µM
same,Kd,[20],120 µM
same,Kd,[14],31 µM
same,fold preference for K48-polyUb,[21],< 2 fold
same,fold preference for K48-polyUb,[22],< 2 fold
Rap80_DLKAAIQ (peptide),Kd,[5],129 µM
same,Kd,[6],10 µM
"Rap80 UIM2 peptide, fluorescein-labelled",Kd,[19],200 µM
GST-hHR23A UBA1,fold tighter than the free domain,[23],> 6 fold
same,Kd,[11],4.7 µM
same,Kd,[1],36 µM
same,Kd,[2],26 µM
same,Kd,[12],13 µM
"Rap80 UIM1 peptide, fluorescein-labelled",Kd,[19],280 µM
Rap80 tUIM with 9-alanine linker (peptide),fold weaker than 7 A,[24],> 25 fold
Rap80_S101E (peptide),Kd,[5],170 µM
same,Kd,[6],16 µM
"Rap80 (1-233), fluorescein-labelled (from UniProt Q96RL1 1-233)",Kd,[13],3.4 µM
same,Kd,[14],23 µM
same,fold preference over K48-Ub4,[25],7 fold
"Ddi1 UBA, fluorescein-labelled",fold difference in Kd for K63- and K48-Ub4,[8],< 2 fold
same,Kd,[13],92 µM
same,Kd,[14],50 µM
Rap80_nolinker (peptide),Kd,[6],47 µM
Rap80 tUIM peptide with no 6xHis-tag and fluorescein on a C-terminal lysine side chain (expressed protein ligation),Kd,[20],19 µM
Rap80 tUIM with 9-alanine linker,Kd,[26],92 µM
Rap80_ARLEEKV (peptide),Kd,[5],230 µM
same,Kd,[6],17 µM
"Ubc1 UBA, His-tagged, Alexa-fluor 546 labelled",Kd,[13],170 µM
same,Kd,[14],37 µM
ataxin-3 Rap80 linker (peptide),Kd,[9],11 µM
same,Kd,[5],160 µM
same,Kd,[6],60 µM
same,Kd,[10],7.8 µM
fluorescein-labeled hHR23A-UBA1 domain (from UniProt P54725 159-201),Kd,[13],30 µM
same,Kd,[14],9 µM
Rap80 tUIM peptide with a C-terminal 3-amino acid extension (DWS),n (sites),[27],0.97 sites
same,Kd,[28],17600 µM
